The text below walks through data of patent US20030064069A1 (CAMBRIDGE ANTIBODY TECHNOLOGY, published 2003).

Numbering of substitutions follows the chain as printed.

The target of assay [1] is T1, Recombinant human TGFβ1 (active TGFβ1) (human, UniProt P01137 279-390).
T1 construct: mature; Recombinant human TGFβ1 from R&D Systems; also called TGFb1
Kind of assay: radioreceptor assay (RRA): scFv inhibits [125I]TGFβ1 binding to A549 cells; approx IC50. From the text: (§1) The scFv fragments were subsequently tested for their ability to neutralise binding of ¹²⁵I-TGFβ₁ to A549 cells in a radioreceptor binding assay (RRA), using the protocol described in Example 3 (see below). For the RRA, individual clones were expressed as soluble scFv and subsequently purified from periplasmic preparations by immobilised metal affinity chromatography (IMAC) followed by fractionation of monomeric scFv by gel filtration FPLC on a Superdex 75 column (Pharmacia).
(§2) A549 cells were seeded into 24-well plates at 2×10⁵ cells per well for 24 hours in order to achieve >90% confluency. Immediately before the assay, monolayers were washed twice with buffer (1:1 DMEM:Hams-F12) and 0.5 ml assay buffer (1:1 DMEM:Hams F12+0 1% BSA) was added. Two or three-fold serial dilutions of antibodies were prepared in assay buffer and added to an equal volume of 40 pM [¹²⁵I]TGFβ₁ in assay buffer.

Assay [2] addresses T1, Recombinant human TGFβ1 (active TGFβ1). As to the kind of experiment: radioreceptor assay: inhibition of [125I]TGFβ1 binding to A549 cells; reference CS37 scFv.
From the text: as §1, §2

Assay [3] shares this target. As to the kind of experiment: radioreceptor assay, his-preps of scFv (FIG. 2); reference JT182 scFv. As to the method: as §2
Purified preparations of SL15S scFv, SL15A IgG4, SL15S IgG4 and Mab ID.11.16 (Genzyme mAb) were also analysed (FIG. 3).

For assay [4], the target named is T2, Recombinant human latent TGFβ1 (human, UniProt P01137 30-278; P01137 279-390).
T2 construct: domain: latency associated peptide;mature; From R&D Systems
As to the kind of experiment: radioreceptor assay and TF1 proliferation assay in the presence of latent TGFβ1.

T1 sequence (P01137 279-390 limits assumed): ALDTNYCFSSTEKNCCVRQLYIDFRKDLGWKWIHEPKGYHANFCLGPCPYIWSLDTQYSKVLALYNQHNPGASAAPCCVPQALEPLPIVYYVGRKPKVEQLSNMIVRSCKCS
T2 sequence (P01137 30-278 limits assumed, chain 1 of 2): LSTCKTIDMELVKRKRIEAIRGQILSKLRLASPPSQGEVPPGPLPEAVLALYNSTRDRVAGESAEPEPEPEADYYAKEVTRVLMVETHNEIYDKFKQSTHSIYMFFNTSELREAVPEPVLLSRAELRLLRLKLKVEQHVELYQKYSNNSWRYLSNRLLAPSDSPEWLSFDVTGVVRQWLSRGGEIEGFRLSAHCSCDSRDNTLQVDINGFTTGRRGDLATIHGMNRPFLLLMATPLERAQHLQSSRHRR
T2 sequence (P01137 279-390 limits assumed, chain 2 of 2): as the sequence (P01137 279-390 limits assumed) above

B1: CS37 scFv (31G9 VH/CS37 VL) (scFv, V domains shown)
VH: QVQLVQSGGGVVQPGRSLRLSCAASGFTFSSYGMHWVRQAPGKGLEWVAVISYDGSIKYYADSVKGRFTISRDNSKNTLYLQMNSLRAEDTAVYYCARTGEYSGYDTSGVELWGQGTTVTVSS
VL: EIVLTQSPSSLSASVGDRVTITCRASQGIGDDLGWYQQKPGKAPILLIYGTSTLQSGVPSRFSGSGSGTDFTLTINSLQPEDFATYYCLQDSNYPLTFGGGTRLEIK
notes: not shown: scFv linker, domain order and tag (on phage: the pCANTAB6 gene III fusion); WO97/13844 is cited for CS37
A word on the IC50: it is the point on the concentration scale where inhibition reaches its midpoint. With B1, in assay [1], the IC50 is 10000 to 15000 pM.

B2: SL15S scFv (SL15 VH/SL15S VL) (scFv, V domains shown)
VH: B1 VH with Q1E, Q6E, G44E, S108D, G109P, V110Q, E111Y, L112S
VL: B1 VL with A25S
notes: soluble scFv was purified by IMAC ('his-preps') and FPLC; also called CAT-191; CAT 191; not shown: scFv linker, domain order and His/other tag (on phage: the pCANTAB6 gene III fusion)
With B2, the “fold better than CS37 (IC50 in the RRA)” value in assay [2] is ≥ 100 fold. For the same molecule, in assay [3], the “fold more active than JT182 scFv” value was found to be 10 fold. Moreover, in assay [1], the half-maximal inhibitory concentration (IC50) was ~100 pM. In assay [4], the binding result is listed as “no binding”.

B3: JT182 scFv (JT182 VH/CS37 VL) (scFv, V domains shown)
VH: B1 VH with Q6E, G44E, S108P, G109A, V110S, E111P, L112D
VL: B1 VL
notes: used as his-prep; not shown: scFv linker, domain order and His tag
With B3, in assay [1], the IC50 was in the range of 500 to 1000 pM.
